# Laboratory results: paper PMC11032447 (2024)
# T1: mouse secretagogin V233A (mouse, UniProt Q91WD9 1-276, V233A)
# T1 sequence: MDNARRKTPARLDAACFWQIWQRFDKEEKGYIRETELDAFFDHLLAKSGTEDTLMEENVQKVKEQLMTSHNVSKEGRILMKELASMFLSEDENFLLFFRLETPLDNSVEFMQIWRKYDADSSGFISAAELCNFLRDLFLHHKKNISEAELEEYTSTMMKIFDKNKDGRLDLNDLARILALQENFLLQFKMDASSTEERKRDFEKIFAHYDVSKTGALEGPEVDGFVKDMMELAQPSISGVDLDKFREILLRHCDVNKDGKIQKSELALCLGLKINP
# T2: mouse secretagogin M229E (mouse, UniProt Q91WD9 1-276, M229E)
# T2 sequence: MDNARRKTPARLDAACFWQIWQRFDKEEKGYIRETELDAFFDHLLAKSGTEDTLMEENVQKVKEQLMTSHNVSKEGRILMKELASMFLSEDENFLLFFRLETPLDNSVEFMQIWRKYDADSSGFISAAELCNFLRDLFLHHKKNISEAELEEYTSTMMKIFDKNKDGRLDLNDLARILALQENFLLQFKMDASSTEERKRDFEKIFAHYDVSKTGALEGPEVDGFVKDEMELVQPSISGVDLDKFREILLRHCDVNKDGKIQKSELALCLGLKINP
# T3: mouse secretagogin M229A (mouse, UniProt Q91WD9 1-276, M229A)
# T3 sequence: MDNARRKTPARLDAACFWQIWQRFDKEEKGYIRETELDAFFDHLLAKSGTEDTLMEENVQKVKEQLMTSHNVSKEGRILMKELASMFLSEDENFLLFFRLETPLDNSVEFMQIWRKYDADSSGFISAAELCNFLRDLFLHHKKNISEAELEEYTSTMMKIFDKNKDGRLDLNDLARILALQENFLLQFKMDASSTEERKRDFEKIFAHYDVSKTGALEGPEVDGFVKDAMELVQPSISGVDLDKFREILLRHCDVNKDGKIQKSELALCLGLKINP
# T4: mouse secretagogin R198A (mouse, UniProt Q91WD9 1-276, R198A)
# T4 sequence: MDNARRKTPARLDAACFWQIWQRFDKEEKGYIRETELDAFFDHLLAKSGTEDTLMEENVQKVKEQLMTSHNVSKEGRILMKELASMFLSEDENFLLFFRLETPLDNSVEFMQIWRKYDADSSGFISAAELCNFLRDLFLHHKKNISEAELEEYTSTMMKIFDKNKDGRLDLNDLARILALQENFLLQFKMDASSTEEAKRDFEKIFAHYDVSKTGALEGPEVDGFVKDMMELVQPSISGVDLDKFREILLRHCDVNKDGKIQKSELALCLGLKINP
# B1: helix-b of the Habc domain of mouse syntaxin-4 (domain or fragment)
# chain: TPLPEESMKQGLQNLREEIKQLGREVRAQLKAIEPQKE
# Assays:
# Experiment in all cases: ITC
# [1] = molecular target: B1
# [2] = molecular target: C-terminal SNARE domain of mouse SNAP-25 (mouse, UniProt P60879 140-206)
# Sequence of C-terminal SNARE domain of mouse SNAP-25 (P60879 140-206): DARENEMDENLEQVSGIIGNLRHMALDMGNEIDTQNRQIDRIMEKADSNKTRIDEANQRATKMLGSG
# mouse secretagogin V233A = molecular target: T1, mouse secretagogin V233A
# mouse secretagogin M229E = molecular target: T2, mouse secretagogin M229E
# mouse secretagogin M229A = molecular target: T3, mouse secretagogin M229A
# mouse secretagogin R198A = molecular target: T4, mouse secretagogin R198A
Binder,Kd [1] [nM],Kd [2] [nM],Kd (mouse secretagogin V233A) [nM],Kd (mouse secretagogin M229E) [nM],Kd (mouse secretagogin M229A) [nM],Kd (mouse secretagogin R198A) [nM]
mouse secretagogin (natural protein) MDNARRKTPARLDAACFWQIWQRFDKEEKGYIRETELDAFFDHLLAKSGTEDTLMEENVQKVKEQLMTSHNVSKEGRILMKELASMFLSEDENFLLFFRLETPLDNSVEFMQIWRKYDADSSGFISAAELCNFLRDLFLHHKKNISEAELEEYTSTMMKIFDKNKDGRLDLNDLARILALQENFLLQFKMDASSTEERKRDFEKIFAHYDVSKTGALEGPEVDGFVKDMMELVQPSISGVDLDKFREILLRHCDVNKDGKIQKSELALCLGLKINP,407,21.9,,,,
B1,,,125,5210,1620,808
